Drawing on patent US20240190956A1 (published 2024), this text covers EC50 for four molecules.

The chains are these.
B1: huMOV19-sSPDB-Compound A (antibody)
heavy: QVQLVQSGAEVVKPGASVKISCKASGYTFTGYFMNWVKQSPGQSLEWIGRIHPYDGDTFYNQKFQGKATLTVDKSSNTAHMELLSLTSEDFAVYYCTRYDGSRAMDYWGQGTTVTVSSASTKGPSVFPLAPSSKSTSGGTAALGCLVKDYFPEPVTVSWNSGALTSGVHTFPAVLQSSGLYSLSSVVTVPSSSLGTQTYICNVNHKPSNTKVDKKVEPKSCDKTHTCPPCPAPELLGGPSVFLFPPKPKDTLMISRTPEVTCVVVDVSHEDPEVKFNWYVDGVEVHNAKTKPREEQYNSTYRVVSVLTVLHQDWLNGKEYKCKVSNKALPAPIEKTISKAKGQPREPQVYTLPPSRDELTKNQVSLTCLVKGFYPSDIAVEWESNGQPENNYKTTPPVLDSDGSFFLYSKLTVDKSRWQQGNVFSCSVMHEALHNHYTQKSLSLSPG
light: DIVLTQSPLSLAVSLGQPAIISCKASQSVSFAGTSLMHWYHQKPGQQPRLLIYRASNLEAGVPDRFSGSGSKTDFTLTISPVEAEDAATYYCQQSREYPYTFGGGTKLEIKRTVAAPSVFIFPPSDEQLKSGTASVVCLLNNFYPREAKVQWKVDNALQSGNSQESVTEQDSKDSTYSLSSTLTLSKADYEKHKVYACEVTHQGLSSPVTKSFNRGEC
modifications: Compound A linked through a sulfo-SPDB linker to amino groups of lysine residues, positions not given; Compound A linked through a sulfo-SPDB linker to amino groups of lysine residues, positions not given; average 2.4 Compound A per antibody
B2: huMOV19-NTS #2 (antibody)
heavy: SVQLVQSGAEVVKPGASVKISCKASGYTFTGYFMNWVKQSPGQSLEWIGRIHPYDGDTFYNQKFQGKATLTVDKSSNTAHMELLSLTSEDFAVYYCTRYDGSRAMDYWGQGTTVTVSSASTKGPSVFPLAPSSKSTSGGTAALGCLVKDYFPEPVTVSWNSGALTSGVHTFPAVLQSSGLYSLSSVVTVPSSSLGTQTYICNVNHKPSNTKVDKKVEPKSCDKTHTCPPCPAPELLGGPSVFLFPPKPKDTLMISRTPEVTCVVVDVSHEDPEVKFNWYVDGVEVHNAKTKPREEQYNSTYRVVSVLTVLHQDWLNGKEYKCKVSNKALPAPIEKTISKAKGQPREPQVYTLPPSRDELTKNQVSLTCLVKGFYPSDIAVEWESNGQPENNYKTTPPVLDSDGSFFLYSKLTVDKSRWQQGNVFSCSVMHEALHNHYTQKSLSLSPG
light: DIVLTQSPLSLAVSLGQPAIISCKASQSVSFAGTSLMHWYHQKPGQQPRLLIYRASNLEAGVPDRFSGSGSKTDFTLTISPVEAEDAATYYCQQSREYPYTFGGGTKLEIKRTVAAPSVFIFPPSDEQLKSGTASVVCLLNNFYPREAKVQWKVDNALQSGNSQESVTEQDSKDSTYSLSSTLTLSKADYEKHKVYACEVTHQGLSSPVTKSFNRGEC
B3: huMOV19-NTS #2-Linker1-Compound A (antibody)
heavy: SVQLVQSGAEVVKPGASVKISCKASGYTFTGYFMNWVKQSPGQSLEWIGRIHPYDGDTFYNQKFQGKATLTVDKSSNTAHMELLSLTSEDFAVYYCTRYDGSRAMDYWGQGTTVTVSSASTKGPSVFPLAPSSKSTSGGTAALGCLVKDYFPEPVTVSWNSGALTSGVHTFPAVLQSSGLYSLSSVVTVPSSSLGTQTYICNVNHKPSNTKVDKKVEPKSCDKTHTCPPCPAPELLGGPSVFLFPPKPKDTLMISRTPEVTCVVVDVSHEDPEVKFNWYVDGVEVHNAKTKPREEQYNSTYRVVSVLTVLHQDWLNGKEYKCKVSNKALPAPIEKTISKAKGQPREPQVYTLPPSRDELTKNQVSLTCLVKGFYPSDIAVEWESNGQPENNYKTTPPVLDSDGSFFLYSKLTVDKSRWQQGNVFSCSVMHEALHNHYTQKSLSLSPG
light: DIVLTQSPLSLAVSLGQPAIISCKASQSVSFAGTSLMHWYHQKPGQQPRLLIYRASNLEAGVPDRFSGSGSKTDFTLTISPVEAEDAATYYCQQSREYPYTFGGGTKLEIKRTVAAPSVFIFPPSDEQLKSGTASVVCLLNNFYPREAKVQWKVDNALQSGNSQESVTEQDSKDSTYSLSSTLTLSKADYEKHKVYACEVTHQGLSSPVTKSFNRGEC
modifications: N-terminal Ser oxidized to an aldehyde and linked through Linker1 to Compound A (sulfonated DGN462); two Compound A molecules per antibody
B4: huMOV19 (antibody)
heavy: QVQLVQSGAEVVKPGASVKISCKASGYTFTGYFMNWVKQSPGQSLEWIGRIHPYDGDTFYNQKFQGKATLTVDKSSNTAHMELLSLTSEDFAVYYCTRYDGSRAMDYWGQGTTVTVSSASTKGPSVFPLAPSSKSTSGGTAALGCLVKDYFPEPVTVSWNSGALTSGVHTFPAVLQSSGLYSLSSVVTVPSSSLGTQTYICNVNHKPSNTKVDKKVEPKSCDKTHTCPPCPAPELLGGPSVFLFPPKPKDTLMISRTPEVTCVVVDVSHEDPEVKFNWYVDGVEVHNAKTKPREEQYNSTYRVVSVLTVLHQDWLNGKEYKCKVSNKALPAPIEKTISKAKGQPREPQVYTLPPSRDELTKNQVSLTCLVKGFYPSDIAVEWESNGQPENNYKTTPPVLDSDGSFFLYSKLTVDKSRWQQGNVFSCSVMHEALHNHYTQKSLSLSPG
light: DIVLTQSPLSLAVSLGQPAIISCKASQSVSFAGTSLMHWYHQKPGQQPRLLIYRASNLEAGVPDRFSGSGSKTDFTLTISPVEAEDAATYYCQQSREYPYTFGGGTKLEIKRTVAAPSVFIFPPSDEQLKSGTASVVCLLNNFYPREAKVQWKVDNALQSGNSQESVTEQDSKDSTYSLSSTLTLSKADYEKHKVYACEVTHQGLSSPVTKSFNRGEC

For this test, the target named is folate receptor alpha (FR-α) (human, UniProt P15328 25-234). Kind of test: FACS binding on T47D cells.
Sequence of folate receptor alpha (FR-α) (P15328 25-234): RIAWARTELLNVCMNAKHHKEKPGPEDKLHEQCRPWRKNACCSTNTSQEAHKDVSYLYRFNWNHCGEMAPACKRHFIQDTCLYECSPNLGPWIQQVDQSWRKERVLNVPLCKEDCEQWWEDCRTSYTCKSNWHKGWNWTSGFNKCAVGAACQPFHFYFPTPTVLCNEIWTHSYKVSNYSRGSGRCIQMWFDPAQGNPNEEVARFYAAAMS
As to B1, the EC50 worked out at 0.426 nM. In other words, the sub-nanomolar range.

B2 yielded an EC50 of 0.243 nM.

The molecule B3 came in with an EC50 of 0.881 nM.

For the molecule B4, the EC50 came to 0.323 nM.
